{"source": "the DeepSol protein solubility set"}
{"experiment": "soluble on expression in E. coli; label from the status in PepcDB or PDB records"}
{"sequence": "MGSDKIHHHHHHMSYWIQISNNVRYSNTFEPVCQPGATREERSTTDPGGVGTVPAIHGASNLNIIPIMRARRASITWPSEGLTRVPYALFQDEGVYADEQDAIFRGPNWSYLCLEAEVPNQGDFRSTFVGDAPVVVTRDTDGEIYAFENRCAHRGAMVCLEDQGNARDFSCVYHAWTYSLQGDLVGVAFKDGIDGKGGMKPDFCTGDHGLRKLRVATLHGLVFGSFSDDVPPLDEYLGEEIVERIARVLENRKPVVLGRFTQMLPNNWKLYFENVKDSYHASILHLFFTTFQLNRLSQRGGIIVDPSGGHHVSYSAVDHAAEAAAQRKATSDYADQKIRSESEHRLEDTSVLAGVDEFGDGVTLQILSVFPGFVLQQIQNAIAVRQILPRGTQQTELNWTYLGFEDDTPELREMRLRQSNLVGPAGYVSMEDGCVGGFVQRGIEGAGDGRSVIEMGGDSAESSASRVTEASIRGFWKAYRNAMGY", "soluble on expression in E. coli": "not soluble"}
{"sequence": "MKIAIGSDHAGFPLKEKIKEFLKGEGHKVIDVGTHAQESTHYPIYAKEVVRAIRSGKAERGILICGTGIGMSITANKFRGIRAALCTNEYMARMSRLHNDANVLCLGERVLGVELALSIVKVWLETPFEGGRHLKRLEIISEIEDEICGENIPR", "soluble on expression in E. coli": "soluble"}
{"sequence": "MAQIVVIGAGLGGLPAAYELRHYLGKAHQVILISEFPQFTFVPGLVQVGLGHIPLDHMQLNVPMLAKRHGFKWVQGKVQKIDPLQKRIYTHETLNYDYLIIASGAELANDLVPGLGIYTHSICTPSHVLEARTAWETFCQQPGDLVVGAAPGTGCFGPAYEYVLLAEADLRRRGIRDQVKITYITPEPYIGHLGIANMAHSQTLTEALMNKRGIATLTNAQIVNISSDHIFLADGQSFGFAYSMILPAFRGAKFVKASGLGNERGFLPVLPTMRHRDYPEIYGVGVSVHLGQINDTQVSIGTPKSGQMTEAMAMVAAHNIAVELGSIAKPLQVPTLEALCFAEYGDTGIAYIAAPVLPDRLTGKRRYSYAIKGIWVNWAKAAFEKYFLAKMRLGVGLPWFEKLGLRLLFGLSMSRPAMAEDIVQPVNVLEHHHHHH", "soluble on expression in E. coli": "soluble"}
{"sequence": "MREWINQSKIDLLAKEIGEENVPILVNIFLGELNDYQSKLVSDTVADKLGYLKEISHALKSSAASFGADRLCAKAVELDSRAKSGEMMDISLEVEHMLELLKQTHQCYSDLVH", "soluble on expression in E. coli": "not soluble"}
{"sequence": "MANCENNPWKKNAWGKNEETAEEPIVSFADVLSEEFIEDLSVQEKLEEERYMKQLDQMFGDTSVSDDQLPINTEGMTDEEVALALQRHFDREADVARAVGSSSSVHFTPDRYHPKTMQETDSENEDDDALRQAATDMLYAKLDEENATNSRLRPEGPSTSRTKHDTGVSGRRNADKTFNDRNTLPTGDMVGDKLNNKVFNKLMAFGKSESKRQMRNKDKEEKATMDTSVDSDTRLLLLKWINQGVFDSVDGIIATGKESAVLHAAQDSATSYAIKVYKTTLSEFKNRSEYVKDDFRFKNPRGVLKIWAEREFMNLSRMAKHGLPCPQPVKVRRNVLVMSFLGDQGLAAPRLKNVEWEFFTDDERRNVYDQVQSIMCRMYKECLLVHADLSEFNLLLTPDNKVHVIDVSQAMDLSHPRSLQFLTRDIQNIITFFTRIGTPNLPTYVQLFNLITDLDMVEDHDLLVQVEQFSEENRSVDLRHDKSRPADMELKKYNEEKKANRGISPAREYN", "soluble on expression in E. coli": "not soluble"}
{"sequence": "GPGSMVALIDTSCYSADCTLSALVPQHAMKPYRLLVTMELIASLGLKRFCRTVVPPPIGIKELLTYHAEDYILNLGLHSNRSWLWNTEVSKVTFSGDCPPVEGIVEYSLSTVSGSLMAAVLLNSGAVDTAIHWGGGMHHAKCGECSGFCYVNDIVIAIIELLKCHDRVLYVDLDMHHGDGVDEAFCRSRRVFTLSLHKFGESFFPGTGHPRDVGIGNGRHYTMNLAMWDGVDDFYYTTVFERALRSIVKRFNPNVVVLQCGADSLAGDRLGHFNLSSWGHGKCVEEVKKLGLPMLVVGGGGYTLRNVAKLWAYETSILCGKRLPLNTVIPLHRMPLSGWLFEESPQLLVSQDEENKPLPGVNVQRSFRVIIEQIDKHCPNIMTV", "soluble on expression in E. coli": "not soluble"}
{"sequence": "MIFTYNREHVGDTLMVIVKDSQGAKLDVDRRGQVARVYLQDSKETVAWNIFEVSSLIVIEGAGQITLSDQDIKILNAELLKEGFEDSLVNNIEPTFVVAQIKEIIDHPDSDHLHICQAEINDGKTVQIVCGAPNASVGLKTVAALPGAMMPNGSLIFPGKLRGEDSFGMLCSARELALPNAPQVRGIIELSDQVIVGESFDANKHWKNLEHHHHHH", "soluble on expression in E. coli": "soluble"}
{"sequence": "MSGVYDSQADIYLDARPTYPADWYSKLAALSHRHNLAWDAGTGNGQAAIGIAEHYERVVATDVSETMLNLGKPHPKVTYHHTPSSMTEDEMVDLIGGENSVDLITVATAVHWFDLPRFYAIANRLLRKPGGIIAVWSYNTDMVVNPEFDSVMTRFIAETLPYCKFPESQYFLDGYKTLPFPFESVGLGSEGKPMELEMKKTVSFEGFLRMLRSWSAVGAAKEKGVDLLSDNVVKELETAWGGYELVRTIVYKTFMLAGTVP", "soluble on expression in E. coli": "soluble"}
{"sequence": "MTPEQAHARARATGPLPLGAGEPAPRGMVRLAHGDGTGLALQVWPDGATPSLLEEYQVAPVNVERSGETRRVLAAALKCCWTDLGADPWPGAPAPVEDVLSAYRALIGRGDDLMRNWAIGALRRLHDSAWLEVEDGVVRLGPRCACWPSESHAQLRELMRRLPTGDEGLTGLEVLPADGRAPAETAASVAPPEDVDEDLLGPFDERRRAEIVAAFIAVEHAAEPVHEARLPALRDPVLRRALAEMLQRRGRVLIQDREAWTSGYAPEVTAVTGTTVGEAERAVLVLVLIHSVAIPRADGLLPADSWLSPFPAQVEELRRHTRLPIGELEAALRTLRHAGLVTQVKAGEEAGGYTPGPQFHRLTPQARRGLQEELILAAGPHTPLAAAVRANRR", "soluble on expression in E. coli": "not soluble"}
{"sequence": "MLLLIDNYDSFTYNLYQYFCELGTEVMVKRNDELQLTDIEQLAPSHVVISPGPCTPNEAGISLAVIRHFADKLPILGVCLGHQALGQAFGARVVRARQVMHGKTSAICHSGQGVFRGLNQPLTVTRYHSLVIATDSLPGRFELTAWTERGGEMDEIMGIRHRTLPLEGVQFHPESILSEQGHQLLDNFLKN", "soluble on expression in E. coli": "not soluble"}
{"sequence": "MSLDEPTDGTGAGTSATEMLDSLEVKGRAPKTGYKRTQFGKAWADVDHNGCDTRNDILNRDLTGVRHKWRTHNCVVKSGKLHDPYTGKDIKFKKGKKTSTAVQIDHVVALSDAWQKGAQKLSEERRTALANDPYNLMAVQGRANQKKSDGDAATWMPSNKGFRCEYVARQIGVKHKYSLWVTQAEKEAMAKVLSSCPTQTVPDYTGVKDSTAEKTTESEQTEQTQTEQSAEQAQQTQQTTQAPAPEPAPAPAPAPQPAPQQDVYYQNCTAARAAGAAPIYQGQPGYRSQLDRDHDGVACEEGHHHHHH", "soluble on expression in E. coli": "soluble"}
{"sequence": "MSLADYLTVTHLTKYLKLKFDRDPYLERVYLTGQVSNFRKRPTHQYFSLKDESAVIQATMWAGVYKKLGFDLEEGMKINVIGRVQLYEPSGSYSIVIEKAEPDGIGALALQFEQLKKKLTAEGYFEQKHKQPLPQFVSKIGVITSPSGAVIRDIITTVSRRFPGVEILLFPTKVQGDGAAQEVVANIRRANQREDLDLLIVGRGGGSIEDLWAFNEEIVVQAIFESQLPVISSVGHETDTTLADFVADRRAATPTAAAELATPITKTDLMSWIVERQNRSYQACLRRIKQRQEWVDKLSQSVIFRQPERLYDAYLQKIDRLSMTLMNTMKDRLSSAKENKVQLDHALANSQLQTKIERYQDRVATAKRLLMANMASQYDSQLARFEKAQDALLSLDASRIIARGYAMIEKNQALVASVSQITKGDQLTIKMRDGQLDVEVKDVKNENIEGHHHHHH", "soluble on expression in E. coli": "not soluble"}
{"sequence": "GPGSMPTLAVAKDYICRLIGKSYTDEEFSDLCFQFGLELDDITSEKEMFMREQGKSAKANVAPAEAPAHLSEEKLYKIDTPANRHDLLTAEGMACALRVFMGTMPLPNYRVLNRASPLYRMSVEKSVKNVRDYVVCAVLRNIHFNERSYNSFIDYQERLHAGLARRRTLASVGTHDLDKVNTTDFIFACRPRETVRFVPLRQTRELNCAGDGLAQYYAEDRHIGKYVPLISSFPTYPVVYDGTGQNVLSLPPIINSHYSAISVDTRNIFIECTAPDHYKAQVLVNQLVCAFSVYCEDPFTVEAVQVNYEEPTPDGTRSLVTPTMETKEMTMNIERLNSIIGIKMKSGAECAQLLKMMMYTIKETTESEVTVTVPPMRTDVIGVADVMEDVAIAYGYDNITYVECKTHGPVTQTPLSKVAQLLRTEMACAGYTELLTLSLCSRADAFESLGRVDNDVAAHIANPQTMEFQVCRPSLLPGILKTLATNKSKPLPQRFFECADVVLLDNERNFPPVLELKTDYASCGARNQRHLAAAHCNGSSSGFESIHGLTELALLKLGVPSKAAIADDYEGDYYTLEKGEDGAFFPGRAMDIILHRAGQAVRIGHLGVIHPNTLKAYDIPSPCSYMELNIQFLCVPL", "soluble on expression in E. coli": "not soluble"}
{"sequence": "MELMKDDRYSPDWKNIAITKKQSVHWVCEWCGVQCLKPGEGKGLLKEERYRLRMAVHHCDYDPGNNSPSNLMAVCSPCHLYYHRRQQGNITPGQLKITINLEHHHHHH", "soluble on expression in E. coli": "soluble"}
{"sequence": "MAKRPSTSKNPAEDDELIIDECRRKLDDDESNDVGAYFEDDNQQGTSYRTPFMPSHLGLIQDQSPDLTMKDLFNRKRSRPQSTGFIDHSQARYYDRYKQQEYTRRNDFMKYCHVCRKKTVGKLRVLPGDLRMRKVWILRSNLDEERSAELWLREMACEGSHGGEFCEAHFPAGSQHMKGNQLIPLDVRPEEGRHSVVEDIQFDFDAIHLQCVFCGRDGPLATMLPFIRNRAKRLRWIEQLASGNETYKNRLLHALRGGVTQFLCDYHISDSSFEINGFGEWRLLKNALPDPRLVASDKRGERKYLVDKCRDEMFWERAMWKSADLLSQNGTADDEDIIVGDDIRQFLTNSVPSEAEQVLHPILQIKQNVEKKLNEADLQPGTSGTSGESNATADNLKIGISEEGVEYSDDSDEENELIEKMGDIPYSKRLCQVCSAVEPIGNEFPNNFPYKFSIRTWPFDECRHKKWLEIMDWPPEFEESMKTLWQKRKTEGALSDSYHFCPINVCQSHLDFRQLPERMEEWHQTFCLLCDTCMSDKSFLVGIPHNFETRTKWANSLFPVKEGNKFQLKKISWLRRRFLRSKPTRYRICVYHFNRKAFQVNQDDKIVLDAEALPLPIDSDDFDLTPRGPNSVCKCVLCDDWKKVEDMVPFRAPHSEAERSFLIDIVIHSDKMTIKKALASLAKTNRPALICNIHFPDGIDPFSIIAERRLMYGVQSECVLCAHANDCTAMIPFPGPDDEKLRTKWINSMCREPWIYRYLSTRLEKPGRHYLCASHFNRNSLRYHAGLGLWRRAAACPVLACTTDEERQEVWDLSKSQPLYHPLILETFDDNGSGRLDYDDVLNFLGTERMRQIETELNFHGRNDSLLRRENRKKNTGRSFYADMPNIYEHGELQEVEDQMEGEEEEVVQEECIIYEEEHHLDEAEELEVIEEEEVVEEIVEQVVDDGVVVGEEM", "soluble on expression in E. coli": "not soluble"}
{"sequence": "MSLNIYRAASVLIDEAGKNDFEISLLGKVNDLVYDTKNEYLYAVSQKGLLAKLNASNGDVIWRQSIAPETSQLNYNPVTNFIITVDKDYLYIWNSKNGILDRKIELADGKGKLFEVNKGFVYLNPHTRKFIELDLQASFSISIERDLQLDAISFLTYAEKNYVLFKRDGQFVLQALDHNYAVYGPETVLNVPENAQLLVTEKDVIIYSSNGVIYGIHVSMADISQLLIDEYKTFEWSSIPGKRHGYSITVDSQSTPVTYLFVIIDSEFVLIDEYIHEDTEALGYIHMEDNQTFSRVFAVANQIKFAPATVITIPNQLSRPVFRLFTFAEGEISAIVILDDGTFFSFSNTELVWKREEALAYAINPSILPTTLLTSYQKSIQDEENSSEGHHHHHH", "soluble on expression in E. coli": "soluble"}
